Measurements from the supplement of paper PMC10724198.
± gives the standard deviation of the averaged measurements.

Tested on: Saccharomyces cerevisiae
Test: protein stability index of tFT-peptide fusion (C-terminal peptide) (PSI (0-1 scale)); higher = more stable (slower turnover)
Settings: genetic background: wild type; temperature: 30 C
Protocol: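 Multiplexed protein stability (MPS) profiling in S. cerevisiae. Random 12-aa peptides (tFT-X12 library) are fused to the C-terminus of a sfGFP-mCherry tandem fluorescent timer, after mCherry and a GGGS linker. Cells are FACS-sorted into 8 mCherry/sfGFP bins and deep-sequenced. The protein stability index (PSI) is the read-weighted bin average, scaled from 0 (unstable) to 1 (stable). Only peptides with >10 reads are reported; cells were grown at 30 °C in SC-His with glucose.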
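Further: PSI is a weighted mean of sequencing reads over stability bins, variants kept only with over 10 reads, mCherry proximal and sfGFP distal, peptide attached via GGGS linker.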

Sequence | protein stability index
VLFGLFAPCFLF | 0.59 ± 0.019
LEPHEIKERRPL | 0.721 ± 0.066
GEVVRGGEWGLD | 0.686 ± 0.057
PDRQNLSRPEKD | 0.702 ± 0.0092
FMSGIVDLQRPL | 0.691 ± 0.034
VPLPPPFPASLT | 0.61 ± 0.027
KKEKNQEKRKKE | 0.657 ± 0.021
PSRRPAVLPPLI | 0.6719 ± 0.0015
SAVPFLRASRNA | 0.693 ± 0.034
RDNKTHSKRAYG | 0.648 ± 0.024
ASPPAYCPPPPP | 0.666 ± 0.039
GIWVWRGARSVG | 0.745 ± 0.054
VNENNQKGNKKT | 0.654 ± 0.12
GIPPFFTLCRLS | 0.57 ± 0.034
SLGPPSLSARTN | 0.626 ± 0.045
RESTGRDQRGIV | 0.673 ± 0.018
CGDAGSVGCVYV | 0.699 ± 0.055
ELVGRRAFRASR | 0.693 ± 0.12
DKACVHPRTVTG | 0.703 ± 0.07
SLILRKDKKKKK | 0.69 ± 0.01
FFSMVFVFGFRA | 0.5 ± 0.015
IKKRDKAKKEYI | 0.672 ± 0.0077
EYRCVAQHSLLH | 0.743 ± 0.049
LASARPLILSWP | 0.628 ± 0.019
PPAPSPPPPPPP | 0.622 ± 0.055

Sequence | protein stability index
EGDGLVWGGQGG | 0.691 ± 0.0078
RHYLWAECGSSE | 0.709 ± 0.017
IVVLMEADLAGC | 0.583 ± 0.02
VFEVNPRFDKLV | 0.758 ± 0.016
VFGDFAIGGLSG | 0.711 ± 0.077
VGCWLLGYFAHQ | 0.675 ± 0.0095
LRFRTNYFFSRV | 0.665 ± 0.063
APSPPSSPSAPP | 0.643 ± 0.052
VRCCFGGRGGRA | 0.637 ± 0.035
TNYWDRGSIQPK | 0.668 ± 0.021
YGKELRRCKWVF | 0.581 ± 0.0072
IIVPCGRWEGGG | 0.69 ± 0.017
IGFPFRIYRFAF | 0.563 ± 0.04
EGGERERGNRER | 0.7176 ± 0.0069
FHRSNFLPFFHL | 0.593 ± 0.092
RAPCSLDFRGNA | 0.758 ± 0.12
RLPAFSSDLLRH | 0.704 ± 0.046
HWRWGGRSGGDR | 0.707 ± 0.013
ILLFLLPFSHRL | 0.658 ± 0.076
PLGVGLVDGEAP | 0.715 ± 0.072
LSSRSDVLTYFV | 0.639 ± 0.022
GIVGLFSALSLL | 0.706 ± 0.1
ASGGIIRWGLWM | 0.694 ± 0.029
RYKALEAQGPRF | 0.717 ± 0.0008
LPPRPRPLPPSP | 0.589 ± 0.0077

Sequence | protein stability index
FPASPQPPPPLP | 0.627 ± 0.024
DCVWGLERVLLL | 0.756 ± 0.016
VDCYIFPGIGAL | 0.701 ± 0.041
PGIAVPTGTSYV | 0.617 ± 0.06
GVEDRFGGSCGL | 0.639 ± 0.049
SEAHMGWRGGEK | 0.643 ± 0.1
DGGHSFLSVARG | 0.644 ± 0.04
TSGDFLPSHSFL | 0.702 ± 0.074
PPPVPPTPFLTR | 0.744 ± 0.11
ITTKLRVTRLLR | 0.766 ± 0.13
MGGGGGLGGGDG | 0.613 ± 0.072
SGEVIRVTDWLV | 0.719 ± 0.038
GKKRFENKKEKY | 0.762 ± 0.12
FSFFVESFPASF | 0.668 ± 0.036
VREMMGFWFVPL | 0.691 ± 0.11
KKKKKKKTQTNK | 0.692 ± 0.015
MKKIGNKLKKEK | 0.657 ± 0.099
PDGGFSSVVSLR | 0.686 ± 0.076
GRSAVVMCFHAG | 0.697 ± 0.018
FCGFLVLGSFPV | 0.664 ± 0.072
LVGWVCRERELG | 0.718 ± 0.06
PLWEYGCLFASS | 0.718 ± 0.03
FLVRMIYYRRHP | 0.616 ± 0.028
LEFMTENSCACV | 0.652 ± 0.033
FVGRWSSRSRGH | 0.768 ± 0.022

Sequence | protein stability index
PSRTTPARPPLT | 0.662 ± 0.061
ILTCGARSSICD | 0.639 ± 0.011
TLGLDPCCSYSR | 0.752 ± 0.15
YGFFCFLPVFRG | 0.661 ± 0.054
IFPPPLLPSLPT | 0.703 ± 0.086
VGCGCVRGYWFG | 0.734 ± 0.018
QQTSGVQERICL | 0.744 ± 0.07
AVPSPVTLPTTS | 0.641 ± 0.066
FISVFYMLFPYR | 0.626 ± 0.013
GEGEAVREMRGV | 0.645 ± 0.025
PSLLSHAPSPRR | 0.682 ± 0.016
PPSPPPPRPSFP | 0.713 ± 0.0096
SSKGGWSGGGSV | 0.71 ± 0.025
GFKDRCKDEKSL | 0.713 ± 0.11
CFPALSGVQGGM | 0.706 ± 0.082
ESVGLGDRRVCS | 0.65 ± 0.024
KSRVCSPSNEPS | 0.7443 ± 0.0074
SFLTPFLLSYAT | 0.636 ± 0.0038
GGGLGGGWGVWG | 0.657 ± 0.025
RVCLVVWRECWF | 0.509 ± 0.0082
SRSPPVLTRHKL | 0.824 ± 0.058
KCDLTREDVVHR | 0.657 ± 0.01
SPLASAVPFLIV | 0.633 ± 0.045
SVTTNDQLPCHS | 0.691 ± 0.026
TSPVCPARPRQL | 0.646 ± 0.042

Sequence | protein stability index
GGRWWGRGVFGG | 0.652 ± 0.028
SLPLPPLPYSRT | 0.732 ± 0.083
QFLGVGCLRGKR | 0.692 ± 0.037
FPSPPLPSSSTS | 0.708 ± 0.051
LEEGLYQQEDIR | 0.722 ± 0.076
TVPGKDEGEESV | 0.696 ± 0.037
HSSDTAFSPLPP | 0.6449 ± 0.0024
PSRSCSAPLHPN | 0.78 ± 0.056
SRPPSSQSNDEL | 0.66 ± 0.078
GARCHSKVTNAS | 0.681 ± 0.036
IKLKVKIQKENG | 0.654 ± 0.021
LASPPFPRPPPP | 0.57 ± 0.12
MKKKTTKTKIKK | 0.7205 ± 0.0051
LPVPLAAFTTLH | 0.711 ± 0.084
ALASPAPLPRRD | 0.7561 ± 0.0057
LRCSKRNKSMGQ | 0.648 ± 0.048
SGRGQQEENRRL | 0.7 ± 0.011
FGFLDRVLLFRV | 0.547 ± 0.013
LEVHQGYLSSCH | 0.676 ± 0.12
SIPSIPTLHENT | 0.67593 ± 0.00066
CSLGLGGRVAAL | 0.697 ± 0.048
WLVGGGTVAHSP | 0.77 ± 0.088
RARFSASCRYRV | 0.671 ± 0.048
SLDKCDKNNGGE | 0.733 ± 0.065
RQSSPKQDRKPS | 0.679 ± 0.048

Sequence | protein stability index
PPPDPPLHHNLP | 0.693 ± 0.036
VGPVGSVGVGGR | 0.654 ± 0.013
KSEIRDGRFPSC | 0.589 ± 0.011
LSVPVGIRPGRC | 0.702 ± 0.018
LGWWWVWSWGRG | 0.668 ± 0.04
RHISRIYVERRY | 0.695 ± 0.02
GLPPPSPPVPLL | 0.683 ± 0.043
YRLVASSHLIFF | 0.661 ± 0.027
CVGPSVERGFWG | 0.689 ± 0.031
SDVRANAYRPEH | 0.688 ± 0.042
THPPLPPYLSPP | 0.727 ± 0.015
DHRGSIWWAGSG | 0.702 ± 0.0034
WIFPPLPPPLPR | 0.7174 ± 0.0037
TGCGSRSSRTKT | 0.864 ± 0.021
VGAWGLMLASVV | 0.5698 ± 0.0055
ASSDRWVVYLYG | 0.685 ± 0.0083
ATKKRKKKNKQT | 0.756 ± 0.11
GSCSGTVLGGSV | 0.626 ± 0.024
IACDPNNRKDFT | 0.627 ± 0.008
APPPFRAPPGFR | 0.845 ± 0.093
FIFHFLMFPGPL | 0.56 ± 0.013
SFRDSFVNFGVF | 0.695 ± 0.045
PTTRSAPPPCIA | 0.676 ± 0.03
SPGSPLSPPAPP | 0.62 ± 0.04
WRNTGSTYYMKV | 0.723 ± 0.015

Sequence | protein stability index
LLSCLDILFFFI | 0.609 ± 0.016
LWGAGAGPEDVG | 0.6983 ± 0.0028
CSSLPPCPYSLP | 0.654 ± 0.12
EWRWCESKIITV | 0.625 ± 0.028
HAPLIPRFALIP | 0.677 ± 0.013
FLIRSSQSFELE | 0.715 ± 0.035
RRREESGEGSEQ | 0.635 ± 0.073
AGALGADRWGLK | 0.741 ± 0.0085
HCSYSSSRPSPR | 0.543 ± 0.043
GVGGFPSRLVGG | 0.69 ± 0.043
VACKGCVVACRV | 0.527 ± 0.045
CELCVCKHGGKG | 0.702 ± 0.013
PPPPPSPRALLP | 0.657 ± 0.028
GAFLGSPWAAAS | 0.731 ± 0.04
TYQNAKAEPTRV | 0.671 ± 0.038
PTRTSHLCLIPP | 0.67 ± 0.075
TVWSSPPSRRSS | 0.699 ± 0.043
LSISGSVHILKD | 0.733 ± 0.024
DQSSTIYKIIKE | 0.672 ± 0.045
MVTGELVQLLLV | 0.528 ± 0.0048
ISMPECDIVEEI | 0.707 ± 0.022
QKNWWLETVLRG | 0.72 ± 0.023
EVAFGLLPPHDS | 0.701 ± 0.019
NNANDKKNKRKK | 0.664 ± 0.044
VVGVAVSRTFAR | 0.618 ± 0.039

Sequence | protein stability index
YSIIYATGMRIL | 0.626 ± 0.07
PWTAHVWSMVLG | 0.552 ± 0.033
KAGVWLWVGGGG | 0.739 ± 0.015
GGAGLGSRSSAL | 0.743 ± 0.008
PPPPRSPSLLSP | 0.651 ± 0.059
GGVGEFGEGALA | 0.689 ± 0.044
FRLILGCPFACL | 0.576 ± 0.034
ADWTATTDPTST | 0.748 ± 0.019
TASLQGCANGQS | 0.674 ± 0.012
ENEKKKKNKNKN | 0.7 ± 0.049
PSAPPSLPFLPY | 0.692 ± 0.032
RRGENQSFPACR | 0.701 ± 0.028
VTTDLALCGSVC | 0.624 ± 0.016
SYGPKMAKAVFR | 0.706 ± 0.056
LLPPPPVPTPDR | 0.659 ± 0.12
GCGDIFAEQLLL | 0.7227 ± 0.0041
MGGYLFLHVGYV | 0.614 ± 0.062
FGEAFYVGCVHV | 0.698 ± 0.037
SVVSSDVGGGRI | 0.5391 ± 0.0047
PLSTPPPLLLTP | 0.719 ± 0.12
AVQTTGRAGRVG | 0.683 ± 0.056
